Data published in patent publication US20030045688A1, “Human interleukin-four induced protein” (priority 2000, published 2003).

Key:
[1] = FIG. 1 enzyme assay using OPD (L-amino acid oxidase activity); type: biochemical; conditions: for substrate preference of LAAO activity: L-amino acid substrates; for pH optimum of L-amino acid oxidase (LAAO) activity: pH value at which activity is maximal
Protocol: 3,3′,5,5′-tetramethylbenzidine (TMB) or o-phenylenediamine (OPD) is used as a chromogenic substrate in the FIG. 1 assay. TMB is advantageous because it is not mutagenic and therefore not likely to be carcinogenic, whereas OPD and o-dianisidine are mutagenic.
To perform these measurements, we developed a FIG. 1 enzyme assay using OPD as a substrate.
For the FIG. 1 enzyme assay using OPD, 10 μl of sample is added to a 190 μl assay mixture resulting in a 200 μl reaction with final concentration of 5 to 50 mM L-phenylalanine (Sigma, St. Louis, Mo.), 10 U/ml peroxidase (Sigma), 0.5 mg/ml OPD (Sigma), and 52.5 mM sodium acetate (pH 4). The reaction is incubated for 2 hours at 37° C., after which the reaction is stopped by the addition of 11 μl 36N sulfuric acid (H2SO4). The quantity of H2O2 generated is determined by measuring absorbance at 490 nm. FIG. 1 enzyme activity in Units is determined by comparison with a standard curve generated using known concentrations of H2O2. The amount of H2O2 (μM) corresponding to the observed absorbance at 490 nm is the amount of L-phenylalanine oxidized, since one H2O2 molecule is produced per L-amino acid oxidized. Therefore, FIG. 1 enzyme units can be calculated as follows:
Units (μmol/min)=(μM)/min×V
One unit oxidizes one micromole of L-phenylalanine per minute at 37° C. and pH 4.

[2] = test system: murine B cell line (M.12.4.1); experiment: Transfection of murine B cell line with vectors expressing mouse FIG. 1; cell toxicity; type: cell-based; conditions: clones expressing FIG. 1 in the insoluble cell fraction; no stable transfectants obtained
Excerpt: A murine B cell line (M.12.4.1) and fibroblast line (NIH3T3) is transfected with vectors expressing mouse FIG. 1. Specifically, a 1985 bp BamHI fragment containing the full length mouse FIG. 1 cDNA is inserted into the BamHI site of the pREP9 vector (InVitrogen, Carlsbad, Calif.), resulting in pMN10-9, a plasmid that expresses FIG. 1 mRNA from the vector's RSV 3′ LTR promoter. A 1930 bp PvuII/EcoRI fragment containing the full length mouse FIG. 1 cDNA is inserted into the Ecl126II/EcoRI sites of pIRES2-EGFP (Clontech), resulting in plasmid mFIG. 1-iGFP (also known as pAFFP), a plasmid that expresses FIG. 1 mRNA from the vector's CMV promoter.
NIH 3T3 cells are transfected with plasmid DNA using the calcium phosphate method. In particular, a Calcium Phosphate Mammalian Cell Transfection Kit (5 Prime→3 Prime, Inc., Boulder, Colo.) or Calcium Phosphate Transfection System (Life Technologies, Inc., Rockville, Md.) is used. A 40 μg plasmid DNA/calcium phosphate precipitate is prepared according to manufacturer's protocol and used to transfect 2×10^6 cells. M12.4. 1 cells are transfected by electorporation or with an Effectene Transfection Reagent (Qiagen, Inc., Valencia, Calif.). […]
During the selection of M.12.1 bulk transfectants, LAAO activity is detected after 15 days, peaking at 17 days, declining after 20 days to undetectable using procedures described above. […]

[3] = listed as interleukin four induced protein

B1: FIG. 1: mouse immediate early interleukin-four induced protein with L-amino acid oxidase activity (SEQ ID NO:1), expressed in transfected cells (protein, listed as Mus sp.)
chain: MAGLALRLVLAATLLGLAGSLDWKAASSLNPIEKCMEDHDYEQLLKVVTLGLNRTSKPQKVVVVGAGVAGLVAAKMLSDAGHKVTILEADNRIGGRIFTFRDEKTGWIGELGAMRMPSSHRILHKLCRTLGLNLTQFTQYDENTWTEVHNVKLRNYVVEKMPEKLGYNLNNRERGHSPEDIYQMALNKAFKDLKALGCKKAMNKFNKHTLLEYLLEEGNLSRPAVQLLGDVMSEEGFFYLSFAEALRAHACLSDRLRYSRIVGGWDLLPRALLSSLSGALLLNAPVVSITQGRNDVRVHIATSLHSEKTLTADVVLLTASGPALQRITFSPPLTRKRQEALRALHYVAASKVFLSFRRPFWHEEHIEGGHSNTDRPSRLIFYPARGEGSLLLASYTWSDAAAPFAGLSTDQTLRLVLQDVAALHGPVVFRLWDGRGVVKRWAEDPHSQGGFVVQPPLYGREAEDYDWSAPFGRIYFAGEHTALPHGWVETAVKSGLRAAVRINNNYGYGEVDPQMMEHAYAEANYLDQYPEGERPEEQQAREEVSPDEQEPSHKHLLVETSPEGQQHAFVEAIPELQGHVFVETVPQEKGHAHQNIYPSEHVQVHGEVIPEWHGHGGSGTPQMHRVGDHS
substrate preference of LAAO activity [1]: prefers aromatic amino acids as a substrate, with phenylalanine (Phe) being the optimal substrate
substrate preference of LAAO activity ([1]; listed as FIG. 1 protein): prefers aromatic L-amino acids for substrates, particularly L-phenylalanine
substrate preference of LAAO activity [1, 3]: lesser specificity for other aromatic amino acids such as tyrosine and tryptophan
LAAO activity at pH values other than the optimum ([1]; compared with pH 4.0): lower activity at pH 5, 8 and 9
pH optimum of L-amino acid oxidase (LAAO) activity [1]: 4
pH optimum of L-amino acid oxidase (LAAO) activity ([1]; listed as FIG. 1 protein): 4
pH optimum of L-amino acid oxidase (LAAO) activity [1, 3]: 4.0
cell death in FIG. 1 transfectants [2]: significant cell death
